From IntAct's records for PubMed 19661922

B1: 5-hydroxytryptamine receptor 4 (Mus musculus), P97288 (parent)
chain: MDKLDANVSSNEGFRSVEKVVLLTFLAVVILMAILGNLLVMVAVCRDRQLRKIKTNYFIVSLAFADLLVSVLVMPFGAIELVQDIWAYGEMFCLVRTSLDVLLTTASIFHLCCISLDRYYAICCQPLVYRNKMTPLRIALMLGGCWVLPMFISFLPIMQGWNNIGIVDVIEKRKFSHNSNSTWCVFMVNKPYAITCSVVAFYIPFLLMVLAYYRIYVTAKEHAQQIQMLQRAGATSESRPQPADQHSTHRMRTETKAAKTLCVIMGCFCFCWAPFFVTNIVDPFIDYTVPEQVWTAFLWLGYINSGLNPFLYAFLNKSFRRAFLIILCCDDERYKRPPILGQTVPCSTTTINGSTHVLRDTVECGGQWESRCHLTATSPLVAAQPSDT

What was measured:
grk5_human GRK5, P34947 [1] = variants of: B1; settings: with grk5_human GRK5, P34947
grk5_human GRK5, P34947 [2] = variants of: B1; settings: with grk5_human GRK5, P34947; remark: listed apart in the source

grk5_human GRK5, P34947, sequence (P34947 whole entry, looked up): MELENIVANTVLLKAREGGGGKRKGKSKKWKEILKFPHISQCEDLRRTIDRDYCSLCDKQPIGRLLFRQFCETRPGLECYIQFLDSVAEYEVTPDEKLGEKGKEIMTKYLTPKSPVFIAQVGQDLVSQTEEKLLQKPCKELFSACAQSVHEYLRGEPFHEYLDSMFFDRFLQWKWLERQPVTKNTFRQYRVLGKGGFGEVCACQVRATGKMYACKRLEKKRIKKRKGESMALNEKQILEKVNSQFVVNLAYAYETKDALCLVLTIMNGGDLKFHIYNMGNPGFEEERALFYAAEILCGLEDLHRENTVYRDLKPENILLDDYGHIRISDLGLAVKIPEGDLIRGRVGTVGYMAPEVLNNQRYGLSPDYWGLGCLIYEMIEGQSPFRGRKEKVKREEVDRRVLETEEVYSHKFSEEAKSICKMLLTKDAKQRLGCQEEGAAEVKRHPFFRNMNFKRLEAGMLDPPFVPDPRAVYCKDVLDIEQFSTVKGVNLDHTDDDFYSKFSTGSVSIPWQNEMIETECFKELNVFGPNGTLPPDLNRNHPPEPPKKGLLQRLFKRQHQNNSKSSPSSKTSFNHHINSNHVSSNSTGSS

Variant | effect of a mutation on the interaction (grk5_human GRK5, P34947 [1]) | effect of a mutation on the interaction (grk5_human GRK5, P34947 [2])
MDKLDANVSSNEGFRSVEKVVLLTFLAVVILMAILGNLLVMVAVCRDRQLRKIKTNYFIVSLAFADLLVSVLVMPFGAIELVQDIWAYGEMFCLVRTSLDVLLTTASIFHLCCISLDRYYAICCQPLVYRNKMTPLRIALMLGGCWVLPMFISFLPIMQGWNNIGIVDVIEKRKFSHNSNSTWCVFMVNKPYAITCSVVAFYIPFLLMVLAYYRIYVTAKEHAQQIQMLQRAGATSESRPQPADQHSTHRMRTETKAAKTLCVIMGCFCFCWAPFFVTNIVDPFIDYTVPEQVWTAFLWLGYINSGLNPFLYAFLNKSFRRAFLIILCCDDARYKRPPILGQTVPCSTTTINGSTHVLRDTVECGGQWESRCHLTATSPLVAAQPSDT [E332A] | decreasing interaction | disrupting interaction
MDKLDANVSSNEGFRSVEKVVLLTFLAVVILMAILGNLLVMVAVCRDRQLRKIKTNYFIVSLAFADLLVSVLVMPFGAIELVQDIWAYGEMFCLVRTSLDVLLTTASIFHLCCISLDRYYAICCQPLVYRNKMTPLRIALMLGGCWVLPMFISFLPIMQGWNNIGIVDVIEKRKFSHNSNSTWCVFMVNKPYAITCSVVAFYIPFLLMVLAYYRIYVTAKEHAQQIQMLQRAGATSESRPQPADQHSTHRMRTETKAAKTLCVIMGCFCFCWAPFFVTNIVDPFIDYTVPEQVWTAFLWLGYINSGLNPFLYAFLNKSFRRAFLIILCCADERYKRPPILGQTVPCSTTTINGSTHVLRDTVECGGQWESRCHLTATSPLVAAQPSDT [D330A] | decreasing interaction | disrupting interaction
MDKLDANVSSNEGFRSVEKVVLLTFLAVVILMAILGNLLVMVAVCRDRQLRKIKTNYFIVSLAFADLLVSVLVMPFGAIELVQDIWAYGEMFCLVRTSLDVLLTTASIFHLCCISLDRYYAICCQPLVYRNKMTPLRIALMLGGCWVLPMFISFLPIMQGWNNIGIVDVIEKRKFSHNSNSTWCVFMVNKPYAITCSVVAFYIPFLLMVLAYYRIYVTAKEHAQQIQMLQRAGATSESRPQPADQHSTHRMRTETKAAKTLCVIMGCFCFCWAPFFVTNIVDPFIDYTVPEQVWTAFLWLGYINSGLNPFLYAFLNKSFRRAFLIILCCDAERYKRPPILGQTVPCSTTTINGSTHVLRDTVECGGQWESRCHLTATSPLVAAQPSDT [D331A] | decreasing interaction | disrupting interaction
